Data: patent US20180327746, “Alpha-AMYLASE-BINDING NUCLEIC ACID MOLECULE AND USE THEREOF” (NEC Solution Innovators, Ltd., published 2018)

T1: alpha-amylase (Homo sapiens, UniProt P0DUB6 P0DUB6:16-511)
T1 sequence: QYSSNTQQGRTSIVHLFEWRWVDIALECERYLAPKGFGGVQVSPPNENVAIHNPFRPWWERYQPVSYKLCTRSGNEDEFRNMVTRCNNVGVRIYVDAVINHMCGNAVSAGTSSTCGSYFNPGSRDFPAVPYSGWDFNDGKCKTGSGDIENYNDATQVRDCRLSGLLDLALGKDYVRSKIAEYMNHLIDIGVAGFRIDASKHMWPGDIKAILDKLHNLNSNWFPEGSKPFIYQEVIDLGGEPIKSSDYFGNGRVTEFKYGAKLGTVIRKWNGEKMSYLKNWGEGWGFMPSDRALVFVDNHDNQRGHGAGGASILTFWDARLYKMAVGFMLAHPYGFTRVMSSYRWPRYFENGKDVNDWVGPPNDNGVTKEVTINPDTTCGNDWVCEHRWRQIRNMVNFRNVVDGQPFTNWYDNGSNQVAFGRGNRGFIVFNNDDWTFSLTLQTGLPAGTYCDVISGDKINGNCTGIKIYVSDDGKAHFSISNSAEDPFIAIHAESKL

T2: chromogranin A (CgA) (Homo sapiens, UniProt P10645 P10645:19-457)
T2 sequence: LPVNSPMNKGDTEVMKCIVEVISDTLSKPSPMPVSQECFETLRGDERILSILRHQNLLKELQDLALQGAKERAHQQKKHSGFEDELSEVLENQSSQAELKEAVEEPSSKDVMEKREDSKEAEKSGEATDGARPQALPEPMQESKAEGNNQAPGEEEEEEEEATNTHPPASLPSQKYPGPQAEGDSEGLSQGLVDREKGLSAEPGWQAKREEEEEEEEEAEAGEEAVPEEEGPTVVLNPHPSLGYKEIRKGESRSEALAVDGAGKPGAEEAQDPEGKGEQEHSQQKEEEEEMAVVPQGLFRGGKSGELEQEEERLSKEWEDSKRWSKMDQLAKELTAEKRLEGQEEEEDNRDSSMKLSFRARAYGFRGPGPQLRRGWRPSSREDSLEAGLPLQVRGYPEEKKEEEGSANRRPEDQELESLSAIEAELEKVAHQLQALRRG

B1: AML1243KR8m3s63Fw_s15 (ssDNA)
DNA: TAACGCCGCCTATTGCGAGGTGTGGCTAGTCGTTATAGGTCCACCGAGTTGCACCAAAAAAAAAAAAAAAAAAAA
modifications: KS9 modified T (formula 1) at underlined T, i.e. T 3' of the 5' primer region
B2: AML1243KR8m4 (ssDNA)
DNA: GGATACCTTAACGCCGCCTATTGATTCTCTGTGACTAGTGTTTGTAGGTCGCAGAGTTGCACCCGTCTCGAAATCAAAAAAAAAAAAAAAAAAAA
modifications: KS9 modified T (formula 1) at underlined T, i.e. T 3' of the 5' primer region
B3: AML1243KR8m5 (ssDNA)
DNA: GGATACCTTAACGCCGCCTATTGAGTTCAACAATGACTAGTGTTTGTCGGTCTGAGTTGCACCCGTCTCGAAATCAAAAAAAAAAAAAAAAAAAA
modifications: KS9 modified T (formula 1) at underlined T, i.e. T 3' of the 5' primer region
B4: AML2243KR8m3 (ssDNA)
DNA: GGATACCTTAACGCCGCCTATTGGTGTCACTAGTGTTTGTCGGTGCCAGCAAGGAGTTGCACCCGTCTCGAAATCAAAAAAAAAAAAAAAAAAAA
modifications: KS9 modified T (formula 1) at underlined T, i.e. T 3' of the 5' primer region
B5: Amy_258KK10R8m3 (ssDNA)
DNA: GGTTACGCCCAGGACACATTTCAGAGCGTAAACAGTCCTGGTTGGCAAATGTGTAAGCTCGGTCTCCTCGGATAATCAAAAAAAAAAAAAAAAAAAA
modifications: KK10 modified T (formula 2) at double-underlined T, i.e. T 3' of the 5' primer region
B6: TYE665-AML1243KR8m2 (ssDNA)
DNA: GGATACCTTAACGCCGCCTATTGCTATGAGTAGTGTTTGTAGGTCTGGCATGCGAGTTGCACCCGTCTCGAAATC
modifications: KS9 modified T (formula 1) at underlined T, i.e. T 3' of the 5' primer region
B7: TYE665-AML1243KR8m3 (ssDNA)
DNA: GGATACCTTAACGCCGCCTATTGCGAGGTGTGGCTAGTCGTTATAGGTCCACCGAGTTGCACCCGTCTCGAAATC
modifications: KS9 modified T (formula 1) at underlined T, i.e. T 3' of the 5' primer region
B8: TYE665-Amy_258KK10R8m2 (ssDNA)
DNA: GGTTACGCCCAGGACACATTTCATTGATGGCATACTAAGGGTCGAGGAATTCGTAAGCTCGGTCTCCTCGGATAATC
modifications: KK10 modified T (formula 2) at double-underlined T, i.e. T 3' of the 5' primer region

Tests used:
[1] = molecular target: T1, alpha-amylase; assay: SPR; SPR buffer with 1 mM MgCl2, pH 7.4; Chi2 30.79; conditions: tags: none stated; commercial human alpha-amylase, Lee Biosolutions; label: 3' poly(dA)20 captured on biotin-poly(dT)20
Method: Biotinylated poly(dT) at 5 μmol/L was injected to a flow cell of the sensor chip using ultrapure water (DDW), and the binding was allowed to proceed until the signal intensity (RU: Resonance Unit) reached about 900 RU. The biotinylated poly(dT) was prepared by biotinylating the 5′ end of 20-mer deoxythymidine. Then, the poly(dA)-added aptamer at 200 nmol/L was injected to the flow cell of the chip using an SPR buffer at a flow rate of 25 μL/min for 80 seconds, and the binding was allowed to proceed until the signal intensity reached about 800 RU. […] With 0 seconds being the start of the injection, the mean value of signal intensities from 115 seconds to 125 seconds was determined. […] Then, the value (B/A) obtained by dividing the protein binding measured value (B) by the aptamer immobilization measured value (A) was determined as a relative value (Relative Unit).
The binding ability of the aptamers was analyzed by SPR in the same manner as in Example 1, except that the concentration of the α-amylase in the specimen was set to a plurality of values. The concentration was set to 20 nmol/L, 10 nmol/L, 5 nmol/L, 2.5 nmol/L, and 1.25 nmol/L. Then, from the results obtained by the SPR analysis, the kinetic parameter and the chi-squared value were calculated.

[2] = molecular target: T1, alpha-amylase; assay: SPR; 400 nM amylase, 1 mM MgCl2, pH 7.4; conditions: tags: none stated; commercial human alpha-amylase, Lee Biosolutions; label: 3' poly(dA)20 captured on biotin-poly(dT)20
Method: The analysis of the binding ability was carried out using a ProteON XPR36 (BioRad) in accordance with its instructions for use.
First, as a sensor chip designed specifically for the ProteON, a streptavidin-immobilized chip (trade name: ProteOn NLC Sensor Chip, BioRad) was set in the ProteON XPR36. Biotinylated poly(dT) at 5 μmol/L was injected to a flow cell of the sensor chip using ultrapure water (DDW), and the binding was allowed to proceed until the signal intensity (RU: Resonance Unit) reached about 900 RU. The biotinylated poly(dT) was prepared by biotinylating the 5′ end of 20-mer deoxythymidine. Then, the poly(dA)-added aptamer at 200 nmol/L was injected to the flow cell of the chip using an SPR buffer at a flow rate of 25 μL/min for 80 seconds, and the binding was allowed to proceed until the signal intensity reached about 800 RU. […] Subsequently, the specimen was injected using the SPR buffer at a flow rate of 50 μL/min for 120 seconds, followed by washing performed by flowing the SPR buffer under the same conditions for 300 seconds. The concentration of the human α-amylase in the specimen was set to 400 nmol/L. Signal intensity measurement was performed concurrently with the injection of the specimen and the washing with the SPR buffer. With 0 seconds being the start of the injection, the mean value of signal intensities from 115 seconds to 125 seconds was determined. […] Then, the value (B/A) obtained by dividing the protein binding measured value (B) by the aptamer immobilization measured value (A) was determined as a relative value (Relative Unit).

[3] = molecular target: T2, chromogranin A (CgA); assay: capillary electrophoresis specificity control; conditions: tags: N-terminal His-tag; full length, Creative BioMart CHGA-26904TH; label: 5' TYE665
Method: (§1) Reaction solutions containing the labeled aptamer (SEQ ID NO: 1) were prepared. Each of the reaction solutions was subjected to CAE under the following conditions. The reaction solution was caused to migrate while separating the components therefrom, and the fluorescence at a maximum absorption wavelength (665 nm) of the fluorescent substance was measured. As the reaction solutions, the following four types of reaction solutions were used: a reaction solution 1 containing the labeled aptamer only; a reaction solution 2 containing the labeled aptamer and the α-amylase; a reaction solution 3 containing the labeled aptamer and the saliva; and a reaction solution 4 containing the labeled aptamer as the negative control and the saliva. In each of the reaction solutions, the concentration of the labeled aptamer was 200 nmol/L. In the reaction solution 2, the concentration of the α-amylase was 2 μmol/L. In the reaction solutions 3 and 4, the concentration of the saliva was 10%. The reminder of each of the reaction solutions was a buffer solution. The composition of the buffer solution was as follows: 40 mmol/L HEPES (pH 7.5), 125 mmol/L NaCl, 5 mmol/L KCl, and 1 mmol/L MgCl₂.
(§2) Preparation of the reaction solution 2 and the binding ability analysis by CAE were carried out in the same manner as in the above item (3), except that the labeled aptamers (SEQ ID NOs: 1, 2, 3, and 19) were used. Further, in order to examine the specificity of the labeled aptamers to the α-amylase, the binding ability analysis by CAE was performed in the same manner as in the case where the above-described reaction solution 2 was used, except that, instead of the α-amylase, human chromogranin A (CgA, recombinant full length protein, Creative BioMart, #CHGA-26904TH) or human IgA (secretory, Biomedicals, LLC-Cappel Products, #55905), each having a His-tag fused at the N terminus were used.

[4] = molecular target: T1, alpha-amylase; assay: capillary electrophoresis; 200 nM aptamer, 2 uM amylase, 1 mM MgCl2; conditions: tags: none stated; commercial human alpha-amylase, Lee Biosolutions; label: 5' TYE665
Method: as §1, §2

Row | Binder | binding result [2] | binding result [3] | binding result [4] | also measured
1 | B1 | – | – | – | Kd [1]: 18.7 nM
2 | B2 | binds | – | – | –
3 | B3 | binds | – | – | –
4 | B4 | binds | – | – | –
5 | B5 | binds | – | – | –
6 | B6 | – | no binding | binds | –
7 | B7 | – | no binding | binds | –
8 | B8 | – | no binding | binds | –
